Laboratory results taken from patent publication US20080045454A1 (TRUSTEES OF COLUMBIA UNIVERSITY IN THE CITY OF NEW YORK, published 2008).

T1: TRIMStop fused to lexA (owl monkey (Aotus trivirgatus))
T1 construct: Yeast two-hybrid bait; also called LexA-TRIMStop; not shown: LexA, fusion partner of the yeast two-hybrid system
T1 chain: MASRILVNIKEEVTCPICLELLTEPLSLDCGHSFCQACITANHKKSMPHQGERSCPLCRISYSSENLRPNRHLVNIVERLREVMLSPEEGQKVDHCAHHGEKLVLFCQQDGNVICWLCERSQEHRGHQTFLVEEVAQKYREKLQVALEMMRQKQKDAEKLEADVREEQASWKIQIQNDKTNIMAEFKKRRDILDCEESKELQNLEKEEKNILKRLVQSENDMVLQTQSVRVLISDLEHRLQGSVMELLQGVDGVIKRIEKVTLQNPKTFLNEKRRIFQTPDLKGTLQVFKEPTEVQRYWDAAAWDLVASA


What was measured:
[1] = target: T1, TRIMStop fused to lexA; assay: yeast two-hybrid, β-galactosidase reporter
Method: (A) Yeast two-hybrid system. […] Pairs of fused LexA and B42 expression plasmids were transformed into Saccharomyces cerevisiae strain EGY48. For each transformant, β-galactosidase activity for three colonies is reported in Miller units with the standard deviation. (B) Binding in mammalian cells.
Fusions of these proteins with LexA and/or B42 were constructed, and the interactions between fusion proteins were analyzed using a previously described system (37) in which reporter gene β-galactosidase activity was assessed with a quantitative assay (43).

[2] = target: T2, TRIMCyp fused to lexA (owl monkey (Aotus trivirgatus)); assay: yeast two-hybrid, β-galactosidase reporter
T2 construct: Yeast two-hybrid bait; also called LexA-TRIMCyp; not shown: LexA, fusion partner of the yeast two-hybrid system

[3] = target: T3, GST-TRIM5αhu (glutathione S-transferase fusion with full-length human TRIM5α) (human, UniProt Q9C035 2-493); assay: immunofluorescence colocalization in cotransfected TE671 cells
T3 construct: mature; Produced in 293T cells; also called GST-T5α; not shown: glutathione S-transferase (GST)
T3 sequence (Q9C035 2-493): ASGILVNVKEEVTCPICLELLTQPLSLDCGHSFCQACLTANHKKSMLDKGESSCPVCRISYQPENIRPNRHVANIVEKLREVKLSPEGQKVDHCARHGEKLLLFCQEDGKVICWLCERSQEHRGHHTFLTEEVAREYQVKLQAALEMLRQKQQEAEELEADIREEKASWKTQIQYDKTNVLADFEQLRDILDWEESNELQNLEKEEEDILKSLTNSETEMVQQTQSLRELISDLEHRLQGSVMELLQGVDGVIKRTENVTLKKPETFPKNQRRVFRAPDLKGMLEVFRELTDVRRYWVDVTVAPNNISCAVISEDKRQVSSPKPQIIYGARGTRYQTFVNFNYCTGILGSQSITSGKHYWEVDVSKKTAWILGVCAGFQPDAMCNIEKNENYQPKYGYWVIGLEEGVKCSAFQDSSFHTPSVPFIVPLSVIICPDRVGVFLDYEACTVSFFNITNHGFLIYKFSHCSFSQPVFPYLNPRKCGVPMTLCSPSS

Binder | binding result [1] | binding result [2] | binding result [3]
TRIMStop expressed in fusion with the B42 activation domain (other, not shown: large carriers, also called B42-TRIMStop) MASRILVNIKEEVTCPICLELLTEPLSLDCGHSFCQACITANHKKSMPHQGERSCPLCRISYSSENLRPNRHLVNIVERLREVMLSPEEGQKVDHCAHHGEKLVLFCQQDGNVICWLCERSQEHRGHQTFLVEEVAQKYREKLQVALEMMRQKQKDAEKLEADVREEQASWKIQIQNDKTNIMAEFKKRRDILDCEESKELQNLEKEEKNILKRLVQSENDMVLQTQSVRVLISDLEHRLQGSVMELLQGVDGVIKRIEKVTLQNPKTFLNEKRRIFQTPDLKGTLQVFKEPTEVQRYWDAAAWDLVASA | binds | binds | 
3× FLAG N-terminal-tagged TRIMStop (other, also called FLAG-TRIMStop; not shown: 3x FLAG tag of p3xFLAG.CMV (SIGMA)) MASRILVNIKEEVTCPICLELLTEPLSLDCGHSFCQACITANHKKSMPHQGERSCPLCRISYSSENLRPNRHLVNIVERLREVMLSPEEGQKVDHCAHHGEKLVLFCQQDGNVICWLCERSQEHRGHQTFLVEEVAQKYREKLQVALEMMRQKQKDAEKLEADVREEQASWKIQIQNDKTNIMAEFKKRRDILDCEESKELQNLEKEEKNILKRLVQSENDMVLQTQSVRVLISDLEHRLQGSVMELLQGVDGVIKRIEKVTLQNPKTFLNEKRRIFQTPDLKGTLQVFKEPTEVQRYWDAAAWDLVASA |  |  | binds
